Results from paper PMC9741609, “A widely distributed family of eukaryotic and bacterial deubiquitinases related to herpesviral large tegument proteins” (Nature Communications, 2022).

Target: T1, ubiquitin-PA (C-terminally propargylated ubiquitin 1-75) (human, UniProt P0CG48 1-75, C-terminal propargylamide (PA))
T1 construct: also called Ub-PA; wildtype Ub-PA; not shown: intein (from the vector pTXB1), C-terminal, cleaved
Test: crystal structure; covalent complex: 1.2 mM Wc-VTD1 incubated with 760 µM ubiquitin-PA for 18 h at 4 °C, unreacted proteins removed by SEC; crystals in 0.1 M BisTris propane pH 7.0, 2.0 M ammonium citrate tribasic at 20 °C
Settings: both partners purified

B1: Wc-VTD1 catalytic domain (aa279-494) (enzyme)
chain: KMPEEEQDSLAAFSRIEANITQYDPLLDNAGKSACTCICLKAAEMLLEASPDQVNAGLIDDILVEGVADYNRFKVGGVVEHTSVENYELNTFELKRLEFRDVDNPFSAEGNPYAGTLDSFAKMMEKASDSKDLPKPVALVMTKSNMTITIVIRPDGKYWLFDPHGTNGKGAYIESCNTDELIKKIKEIFPKTSYPGMTEDENLGFNSFEAYAVRRS
notes: also called wcw_1294; Waddlia VTD1; source: E. coli Rosetta (DE3) pLysS, purified (HisTrap, SEC)
binding result: binds
